Results published in US20100129369A1 (Eli Lilly, published 2010).

How the values were obtained:
Human c-Met-Flis-Fc ECD = target: T1, Human c-Met-Flis-Fc ECD (human); assay: ELISA, coated ECD-Fc, antibody 0.000 ng/mL
T1 construct: also called human c-Met extracellular domain (ECD)-Fc-Flis fusion; Human cMet-ECD-Fc-Flis
Procedure: (§1) Wells of 96-well EIA/RIA high binding plates (Costar, #2592) are coated with 100 μL of 1 μg/mL human c-Met extracellular domain (ECD)-Fc-Flis fusion (SEQ ID NO:72), RON-ECD-Fc (R&D Systems, #1947-MS), or PlexinA2-ECD-Fc (Abnova, Taipei, Taiwan #H00005362-P01) in coating buffer (BioFX Labs, # COAT-1000-01) overnight at 4° C. […] After the plates are washed, 100 μL/well of substrate solution (BioFx, #TMBW-1000-01) are added and the plates are incubated for 10 min. at room temperature. 100 μL/well of stop solution (BioFx, # LSTP-1000-01) are added to stop the reaction. The colorimetric signals are developed and read at 450 nm using a SpectraMax 190 plate reader (Molecular Devices, Sunnyvale, Calif.). c-Met antibody binding to c-Met, RON and PlexinA2 ECDs is proportional to color signal production.

RON-ECD-Fc = target: T2, RON-ECD-Fc (human, UniProt Q04912 25-957); assay: ELISA, coated ECD-Fc, antibody 0.000 ng/mL
T2 construct: extracellular domain; Bought reagent; not shown: Fc part of the bought fusion
T2 sequence (looked up): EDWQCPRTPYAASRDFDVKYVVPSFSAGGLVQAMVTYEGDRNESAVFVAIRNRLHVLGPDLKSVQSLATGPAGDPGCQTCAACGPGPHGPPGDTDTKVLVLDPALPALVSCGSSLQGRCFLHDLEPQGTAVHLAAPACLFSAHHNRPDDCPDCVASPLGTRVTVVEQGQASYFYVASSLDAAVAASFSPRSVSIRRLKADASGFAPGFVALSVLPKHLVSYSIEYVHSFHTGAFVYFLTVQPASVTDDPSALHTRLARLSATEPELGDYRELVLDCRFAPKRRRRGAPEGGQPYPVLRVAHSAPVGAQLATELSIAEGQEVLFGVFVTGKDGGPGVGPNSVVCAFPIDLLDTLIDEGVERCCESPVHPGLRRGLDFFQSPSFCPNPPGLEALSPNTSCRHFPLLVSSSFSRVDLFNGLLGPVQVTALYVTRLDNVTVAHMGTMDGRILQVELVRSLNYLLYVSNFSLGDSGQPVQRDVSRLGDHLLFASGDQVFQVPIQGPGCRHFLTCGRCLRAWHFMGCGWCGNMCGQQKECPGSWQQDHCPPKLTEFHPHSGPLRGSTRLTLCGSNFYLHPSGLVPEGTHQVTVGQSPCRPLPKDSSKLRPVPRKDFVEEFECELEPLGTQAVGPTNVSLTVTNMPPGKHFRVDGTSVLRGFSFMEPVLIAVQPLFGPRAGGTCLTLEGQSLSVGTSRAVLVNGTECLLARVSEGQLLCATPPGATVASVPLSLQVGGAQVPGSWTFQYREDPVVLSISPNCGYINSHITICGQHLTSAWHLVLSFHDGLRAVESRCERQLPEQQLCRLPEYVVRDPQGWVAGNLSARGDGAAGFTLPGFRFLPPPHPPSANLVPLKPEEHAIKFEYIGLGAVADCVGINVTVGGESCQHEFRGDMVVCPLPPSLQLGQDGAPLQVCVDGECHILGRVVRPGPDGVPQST
Procedure: as §1

PlexinA2-ECD-Fc [1] = target: T3, PlexinA2-ECD-Fc (human, UniProt O75051 35-1237); assay: ELISA, coated ECD-Fc, antibody 0.000 ng/mL
T3 construct: extracellular domain; Bought reagent
T3 sequence (looked up): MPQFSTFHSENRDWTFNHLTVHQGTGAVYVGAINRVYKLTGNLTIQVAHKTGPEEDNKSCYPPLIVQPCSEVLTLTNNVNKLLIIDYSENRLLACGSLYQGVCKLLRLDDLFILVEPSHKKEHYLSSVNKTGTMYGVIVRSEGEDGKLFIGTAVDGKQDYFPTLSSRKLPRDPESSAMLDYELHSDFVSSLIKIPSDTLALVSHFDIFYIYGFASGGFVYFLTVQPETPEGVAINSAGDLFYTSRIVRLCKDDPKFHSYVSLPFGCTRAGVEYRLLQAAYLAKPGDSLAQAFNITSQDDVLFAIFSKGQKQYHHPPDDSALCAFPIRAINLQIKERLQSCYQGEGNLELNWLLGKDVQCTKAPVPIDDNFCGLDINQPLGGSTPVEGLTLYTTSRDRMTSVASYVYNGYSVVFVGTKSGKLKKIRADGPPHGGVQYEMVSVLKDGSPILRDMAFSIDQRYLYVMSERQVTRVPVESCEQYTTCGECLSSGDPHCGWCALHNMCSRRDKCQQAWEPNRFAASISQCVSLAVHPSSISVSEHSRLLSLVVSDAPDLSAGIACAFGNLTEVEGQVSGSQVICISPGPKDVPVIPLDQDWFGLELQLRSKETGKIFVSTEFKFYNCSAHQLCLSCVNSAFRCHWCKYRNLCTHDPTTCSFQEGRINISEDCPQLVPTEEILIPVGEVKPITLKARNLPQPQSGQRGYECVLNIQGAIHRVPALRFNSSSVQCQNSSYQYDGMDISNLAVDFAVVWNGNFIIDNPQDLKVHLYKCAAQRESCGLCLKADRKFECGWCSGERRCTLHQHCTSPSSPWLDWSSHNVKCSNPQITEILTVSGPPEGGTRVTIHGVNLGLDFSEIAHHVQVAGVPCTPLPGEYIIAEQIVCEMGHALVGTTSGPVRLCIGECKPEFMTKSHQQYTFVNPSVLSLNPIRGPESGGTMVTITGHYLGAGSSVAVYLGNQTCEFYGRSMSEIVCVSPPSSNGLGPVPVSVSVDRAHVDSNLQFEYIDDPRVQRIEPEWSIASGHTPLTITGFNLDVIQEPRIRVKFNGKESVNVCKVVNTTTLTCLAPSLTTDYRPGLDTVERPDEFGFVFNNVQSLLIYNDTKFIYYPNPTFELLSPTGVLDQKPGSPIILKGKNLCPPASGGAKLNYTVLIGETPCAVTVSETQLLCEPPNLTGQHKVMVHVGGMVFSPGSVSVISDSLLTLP
Procedure: as §1

PlexinA2-ECD-Fc [2] = target: T3, PlexinA2-ECD-Fc; assay: ELISA, coated ECD-Fc, antibody 462.963 ng/mL

T1 sequence (chain, as listed by the source limits assumed): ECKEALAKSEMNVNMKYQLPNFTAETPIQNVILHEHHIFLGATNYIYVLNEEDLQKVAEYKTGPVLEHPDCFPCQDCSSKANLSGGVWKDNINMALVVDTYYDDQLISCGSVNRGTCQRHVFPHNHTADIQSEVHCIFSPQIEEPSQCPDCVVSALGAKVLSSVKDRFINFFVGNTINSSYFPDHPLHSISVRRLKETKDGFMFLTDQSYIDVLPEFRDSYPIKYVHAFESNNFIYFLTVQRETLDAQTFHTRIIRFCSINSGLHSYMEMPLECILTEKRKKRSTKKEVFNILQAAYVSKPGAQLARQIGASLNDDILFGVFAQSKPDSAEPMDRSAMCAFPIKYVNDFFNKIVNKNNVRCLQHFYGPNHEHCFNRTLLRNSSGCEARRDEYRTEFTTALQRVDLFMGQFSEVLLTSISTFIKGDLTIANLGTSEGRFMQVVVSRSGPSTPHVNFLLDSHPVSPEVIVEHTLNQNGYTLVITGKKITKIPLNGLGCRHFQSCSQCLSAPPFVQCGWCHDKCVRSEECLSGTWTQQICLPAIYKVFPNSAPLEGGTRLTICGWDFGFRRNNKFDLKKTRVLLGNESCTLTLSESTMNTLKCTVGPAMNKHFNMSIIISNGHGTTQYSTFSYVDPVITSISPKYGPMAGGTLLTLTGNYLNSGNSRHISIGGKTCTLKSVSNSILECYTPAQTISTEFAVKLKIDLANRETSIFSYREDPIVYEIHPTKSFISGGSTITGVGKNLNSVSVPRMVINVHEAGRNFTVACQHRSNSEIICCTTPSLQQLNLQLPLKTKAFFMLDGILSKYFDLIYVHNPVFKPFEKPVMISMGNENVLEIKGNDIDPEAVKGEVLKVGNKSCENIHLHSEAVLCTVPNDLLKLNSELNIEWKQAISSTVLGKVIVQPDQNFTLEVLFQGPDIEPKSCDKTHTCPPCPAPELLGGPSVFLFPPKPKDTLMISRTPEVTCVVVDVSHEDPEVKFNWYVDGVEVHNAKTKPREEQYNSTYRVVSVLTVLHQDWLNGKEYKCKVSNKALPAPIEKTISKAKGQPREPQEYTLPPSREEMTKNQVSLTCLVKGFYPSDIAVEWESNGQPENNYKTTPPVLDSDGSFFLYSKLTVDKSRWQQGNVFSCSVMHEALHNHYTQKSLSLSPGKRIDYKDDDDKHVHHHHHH

- Average A450 nm (Human c-Met-Flis-Fc ECD): 0.322 A450 nm
- Average A450 nm (RON-ECD-Fc): 0.11 A450 nm
- Average A450 nm (PlexinA2-ECD-Fc [1]): 0.109 A450 nm
- Average A450 nm (PlexinA2-ECD-Fc [2]): 0.086 A450 nm
B1: C8-6 (antibody, human IgG2, kappa, V domains shown)
VH: QVQLVQSGAEVKKPGASVKVSCKASGYTFTDYYMHWVRQAPGQGLEWMGRVNPNRGGTTYNQKFEGRVTMTTDTSTSTAYMELRSLRSDDTAVYYCARTNWLDYWGQGTTVTVSS
VL: DIQMTQSPSSLSASVGDRVTITCSVSSSVSSIYLHWYQQKPGKAPKLLIYSTSNLASGVPSRFSGSGSGTDFTLTISSLQPEDFATYYCIQYSGYPLTFGGGTKVEIKR
notes: Called IgG4, kappa; also called Mab C8-6
